# *1 amine or outer side, *2 acyl side, *3 side chain or, on linkers, in order; H or OH if unused. Side-chain parts run from the residue outwards. [ ]: non-standard residue; d: D form. The star is where a group is joined. C18 diacid = O=C(O)CCCCCCCCCCCCCCCCC(=O)*; γGlu = O=C(O)[C@H](CCC(=O)[*:2])N[*:1]; Ac4c = NC1(C(=O)O)CCC1; Aib = CC(C)(N)C(=O)O
# T1: endogenous GLP-1 receptor of a murine insulinoma cell line (murine, UniProt O35659 22-463)
# T1 sequence (looked up): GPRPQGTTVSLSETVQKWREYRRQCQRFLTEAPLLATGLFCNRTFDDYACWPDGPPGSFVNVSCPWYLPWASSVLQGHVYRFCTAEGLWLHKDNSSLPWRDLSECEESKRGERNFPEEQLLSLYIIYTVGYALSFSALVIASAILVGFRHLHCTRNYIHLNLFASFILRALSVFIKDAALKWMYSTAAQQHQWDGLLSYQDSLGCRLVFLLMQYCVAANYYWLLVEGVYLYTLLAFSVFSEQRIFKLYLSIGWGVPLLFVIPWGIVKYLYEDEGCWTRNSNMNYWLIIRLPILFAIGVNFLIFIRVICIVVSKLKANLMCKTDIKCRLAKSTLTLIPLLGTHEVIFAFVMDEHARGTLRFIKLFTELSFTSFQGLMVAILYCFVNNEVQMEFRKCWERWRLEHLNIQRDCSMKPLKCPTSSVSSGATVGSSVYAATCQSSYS
# B1: H-H-Ac4c-QGTFTSDYSKYLDERRAKDFI-K([17-carboxy-heptadecanoyl]-isoGlu-GSGSGG)-WLESA-NH2 (peptide)
# peptide: HXQGTFTSDYSKYLDERRAKDFIKWLESA
# modifications: Ac4c at position 2; Lys 24 side chain conjugated to [17-carboxy-heptadecanoyl]-isoGlu-GSGSGG; C-terminal amide
# B2: H-H-Aib-QGTFTSDYSKYLDERAAKDFI-K([17-carboxy-heptadecanoyl]-isoGlu-GSGSGG)-WLESA-NH2 (peptide)
# peptide: HXQGTFTSDYSKYLDERAAKDFIKWLESA
# modifications: Aib at position 2; Lys 24 side chain conjugated to [17-carboxy-heptadecanoyl]-isoGlu-GSGSGG; C-terminal amide
# B3: H-H-Ac4c-QGTFTSDYSKYLDERRAKDFIEWLE-K([17-carboxy-heptadecanoyl]-isoGlu-GSGSGG)-A-NH2 (peptide)
# peptide: HXQGTFTSDYSKYLDERRAKDFIEWLEKA
# modifications: Ac4c at position 2; Lys 28 side chain conjugated to [17-carboxy-heptadecanoyl]-isoGlu-GSGSGG; C-terminal amide
# B4: H-H-Ac4c-QGTFTSDYSKYLD-K([17-carboxy-heptadecanoyl]-isoGlu-GSGSGG)-RAAKDFIEWLESA-NH2 (peptide)
# peptide: HXQGTFTSDYSKYLDKRAAKDFIEWLESA
# modifications: Ac4c at position 2; Lys 16 side chain conjugated to [17-carboxy-heptadecanoyl]-isoGlu-GSGSGG; C-terminal amide
# B5: H-H-Ac4c-QGTFTSDYSKYLDE-K([17-carboxy-heptadecanoyl]-isoGlu)-RAKDFIEWLESA-NH2 (peptide)
# peptide: H-H[Ac4c]QGTFTSDYSKYLDEK([γGlu-C18 diacid])RAKDFIEWLESA-NH2
# SMILES: CC[C@H](C)[C@H](NC(=O)[C@H](Cc1ccccc1)NC(=O)[C@H](CC(=O)O)NC(=O)[C@H](CCCCN)NC(=O)[C@H](C)NC(=O)[C@H](CCCNC(=N)N)NC(=O)[C@H](CCCCNC(=O)CC[C@H](NC(=O)CCCCCCCCCCCCCCCCC(=O)O)C(=O)O)NC(=O)[C@H](CCC(=O)O)NC(=O)[C@H](CC(=O)O)NC(=O)[C@H](CC(C)C)NC(=O)[C@H](Cc1ccc(O)cc1)NC(=O)[C@H](CCCCN)NC(=O)[C@H](CO)NC(=O)[C@H](Cc1ccc(O)cc1)NC(=O)[C@H](CC(=O)O)NC(=O)[C@H](CO)NC(=O)[C@@H](NC(=O)[C@H](Cc1ccccc1)NC(=O)[C@@H](NC(=O)CNC(=O)[C@H](CCC(N)=O)NC(=O)C1(NC(=O)[C@@H](N)Cc2c[nH]cn2)CCC1)[C@@H](C)O)[C@@H](C)O)C(=O)N[C@@H](CCC(=O)O)C(=O)N[C@@H](Cc1c[nH]c2ccccc12)C(=O)N[C@@H](CC(C)C)C(=O)N[C@@H](CCC(=O)O)C(=O)N[C@@H](CO)C(=O)N[C@@H](C)C(N)=O
# Target: human glucagon receptor (Glucagon-R) (human, UniProt P47871 26-477)
# Test: cell-based or functional assay
# Sequence of human glucagon receptor (Glucagon-R) (P47871 26-477): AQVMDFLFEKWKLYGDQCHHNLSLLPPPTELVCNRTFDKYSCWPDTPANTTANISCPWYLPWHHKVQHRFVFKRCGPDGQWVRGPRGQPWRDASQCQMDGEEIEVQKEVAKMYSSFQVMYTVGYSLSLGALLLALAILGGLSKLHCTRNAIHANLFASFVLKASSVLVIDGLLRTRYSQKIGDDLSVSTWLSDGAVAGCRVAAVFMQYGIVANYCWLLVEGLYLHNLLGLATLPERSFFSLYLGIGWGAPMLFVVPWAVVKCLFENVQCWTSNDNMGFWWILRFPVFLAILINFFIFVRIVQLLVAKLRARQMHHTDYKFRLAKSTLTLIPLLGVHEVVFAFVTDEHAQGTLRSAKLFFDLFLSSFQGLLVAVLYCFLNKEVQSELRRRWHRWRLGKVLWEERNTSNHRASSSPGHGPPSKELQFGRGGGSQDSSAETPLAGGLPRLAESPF
row,Binder,"EC50 hGCGR CHO-K1 [nM] (cAMP, AlphaScreen)"
1,H-H[Ac4c]HGTFTSDYSKYLDEK([Peg3-Peg3-γGlu-C18 diacid])RAKDFIEWLESA-NH2 [H-H-Ac4c-HGTFTSDYSKYLDE-K([17-carboxy-heptadecanoyl]-isoGlu-Peg3-Peg3)-RAKDFIEWLESA-NH2],0.07
2,B1,0.18
3,B2,1.48
4,B3,0.16
5,H-H[Aib]QGTFTSDYSKYLEK([Peg3-Peg3-γGlu-C18 diacid])RAAHDFIEWLESA-NH2 [H-H-Aib-QGTFTSDYSKYLE-K([17-carboxy-heptadecanoyl]-isoGlu-Peg3-Peg3)-RAAHDFIEWLESA-NH2],0.31
6,H-H[Ac4c]QGTFTSDYSKYLDERAAKDFIKWLESA-NH2 (not fully specified (residue 24)) [H-H-Ac4c-QGTFTSDYSKYLDERAAKDFI-K([17-carboxy-heptadecanoyl]-isoGlu-GSGSGG)-WLESA-NH2],0.52
7,B4,0.11
8,B5,0.07

# Target: human glucagon-like peptide 1 receptor (GLP-1R) (human, UniProt P43220 24-463)
# Test: cell-based or functional assay
row,Binder,"EC50 hGLP-1R CHO-K1 [nM] (cAMP, AlphaScreen)"
1,H-H[Ac4c]HGTFTSDYSKYLDEK([Peg3-Peg3-γGlu-C18 diacid])RAKDFIEWLESA-NH2 [H-H-Ac4c-HGTFTSDYSKYLDE-K([17-carboxy-heptadecanoyl]-isoGlu-Peg3-Peg3)-RAKDFIEWLESA-NH2],0.97
2,B1,0.6
3,B2,0.7
4,B3,0.53
5,H-H[Aib]QGTFTSDYSKYLEK([Peg3-Peg3-γGlu-C18 diacid])RAAHDFIEWLESA-NH2 [H-H-Aib-QGTFTSDYSKYLE-K([17-carboxy-heptadecanoyl]-isoGlu-Peg3-Peg3)-RAAHDFIEWLESA-NH2],0.8
6,H-H[Ac4c]QGTFTSDYSKYLDERAAKDFIKWLESA-NH2 (not fully specified (residue 24)) [H-H-Ac4c-QGTFTSDYSKYLDERAAKDFI-K([17-carboxy-heptadecanoyl]-isoGlu-GSGSGG)-WLESA-NH2],0.33
7,B4,0.97
8,B5,0.48

# Target: T1, endogenous GLP-1 receptor of a murine …
# Test: cell-based or functional assay
row,Binder,EC50 [nM] (cAMP in a murine insulinoma cell line)
1,H-H[Ac4c]HGTFTSDYSKYLDEK([Peg3-Peg3-γGlu-C18 diacid])RAKDFIEWLESA-NH2 [H-H-Ac4c-HGTFTSDYSKYLDE-K([17-carboxy-heptadecanoyl]-isoGlu-Peg3-Peg3)-RAKDFIEWLESA-NH2],0.84
2,B1,0.38
3,B2,0.15
4,B3,0.34
5,H-H[Aib]QGTFTSDYSKYLEK([Peg3-Peg3-γGlu-C18 diacid])RAAHDFIEWLESA-NH2 [H-H-Aib-QGTFTSDYSKYLE-K([17-carboxy-heptadecanoyl]-isoGlu-Peg3-Peg3)-RAAHDFIEWLESA-NH2],0.36
6,H-H[Ac4c]QGTFTSDYSKYLDERAAKDFIKWLESA-NH2 (not fully specified (residue 24)) [H-H-Ac4c-QGTFTSDYSKYLDERAAKDFI-K([17-carboxy-heptadecanoyl]-isoGlu-GSGSGG)-WLESA-NH2],0.37
7,B4,0.47
8,B5,0.81

# Target: endogenous glucagon receptor of primary rat hepatocytes (rat, UniProt P30082 27-485)
# Test: cell-based or functional assay
# Sequence of endogenous glucagon receptor of primary rat hepatocytes (P30082 27-485): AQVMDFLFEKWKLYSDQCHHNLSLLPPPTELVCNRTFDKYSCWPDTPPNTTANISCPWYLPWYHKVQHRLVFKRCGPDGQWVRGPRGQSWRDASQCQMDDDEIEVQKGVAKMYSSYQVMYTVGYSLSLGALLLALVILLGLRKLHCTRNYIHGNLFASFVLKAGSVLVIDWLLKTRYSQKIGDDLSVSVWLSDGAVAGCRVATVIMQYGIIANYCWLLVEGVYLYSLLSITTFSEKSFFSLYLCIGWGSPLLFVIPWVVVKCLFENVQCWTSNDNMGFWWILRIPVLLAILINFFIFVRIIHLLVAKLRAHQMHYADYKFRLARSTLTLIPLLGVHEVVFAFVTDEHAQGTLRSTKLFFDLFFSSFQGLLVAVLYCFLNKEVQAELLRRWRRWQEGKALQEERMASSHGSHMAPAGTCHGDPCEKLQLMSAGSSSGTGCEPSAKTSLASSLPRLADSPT
row,Binder,EC50 [nM] (inhibition of glycogen synthesis rate in primary rat hepatocytes)
1,H-H[Ac4c]HGTFTSDYSKYLDEK([Peg3-Peg3-γGlu-C18 diacid])RAKDFIEWLESA-NH2 [H-H-Ac4c-HGTFTSDYSKYLDE-K([17-carboxy-heptadecanoyl]-isoGlu-Peg3-Peg3)-RAKDFIEWLESA-NH2],0.11
2,B1,0.19
3,B2,0.94
4,B3,0.19
5,H-H[Aib]QGTFTSDYSKYLEK([Peg3-Peg3-γGlu-C18 diacid])RAAHDFIEWLESA-NH2 [H-H-Aib-QGTFTSDYSKYLE-K([17-carboxy-heptadecanoyl]-isoGlu-Peg3-Peg3)-RAAHDFIEWLESA-NH2],0.29
6,H-H[Ac4c]QGTFTSDYSKYLDERAAKDFIKWLESA-NH2 (not fully specified (residue 24)) [H-H-Ac4c-QGTFTSDYSKYLDERAAKDFI-K([17-carboxy-heptadecanoyl]-isoGlu-GSGSGG)-WLESA-NH2],0.43
7,B4,0.34
8,B5,0.45

# Source: US9896495 (ZEALAND PHARMA A S, dated 2018)
